± gives the uncertainty stated by the source.

The data set can be described thus: amyloid nucleation score (Sup35N fusion, yeast selection) (log enrichment); library NNK1; higher = more nucleation; inactive = no reads after selection. The gist of the method: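 Using DiMSum, nucleation scores were taken as the log enrichment of output over input reads, centred on the mode score of non-aggregating sequences. The input and output reads came from Illumina sequencing of plasmid inserts, with sequences under 100 input reads excluded. The yeast were psi-negative, expressed Sup35N fused to peptides of 20 random codons, were induced with 100 μM copper sulfate for 24 hours, and were grown 7 days at 30°C on medium lacking adenine and uracil.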

With LCSMKMIYQKC, the amyloid nucleation score came to 0.177 ± 0.33.

Regarding LTEDMNYFAY, the amyloid nucleation score was found to be 0.252 ± 0.46.

ILYTSTVGTQLPKDGLDC yielded an amyloid nucleation score of 0.593 ± 0.34.

Consider MHWFRVN, for which the amyloid nucleation score came out at 0.324 ± 0.3.

As for RCYCDNFVLGLVEL, the amyloid nucleation score is 0.267 ± 0.29.

Substance VCGEYEITVKIISVSRSNKC displayed an amyloid nucleation score of 1.45 ± 0.26.

On to DNWSMGYPEETGAWGVN, for which the amyloid nucleation score came out at 0.406 ± 0.45.

YIVGPIGVFSY gave an amyloid nucleation score of 2.25 ± 0.55.

Take NNPDTMSI: the amyloid nucleation score is 0.44 ± 0.56.

For the substance WIMVFWEFVNLTCNNRILDN, the amyloid nucleation score is -0.588 ± 0.72.

In turn, RLFLSLLMKSRTIMRRKGLV gave an amyloid nucleation score of 2.54 ± 0.15.

The substance KLCQVRHVSWIMSCQRYKQD displayed an amyloid nucleation score of 0.058 ± 0.49.

The substance YRKFENGVSVIRFEVQCTLV displayed an amyloid nucleation score of 4.88 ± 0.072.

Substance FIEHTYVEEG yielded an amyloid nucleation score of 0.19 ± 0.23.

On to VFSSVGGETSYRCMGTASGT, for which the amyloid nucleation score was -0.231 ± 0.46.

Substance FATIVFVVKNENFMNADTLR returned an amyloid nucleation score of 5.68 ± 0.08.

With ACMRCFGNICSLWSVKGN, the amyloid nucleation score amounted to 7.417 ± 0.052.

In the case of HMLASNSRWNTAKGINWGFH, the amyloid nucleation score worked out at 0.758 ± 0.7.

Substance AHSGMRLL came in with an amyloid nucleation score of 0.569 ± 0.75.

The substance YADRFRASASPNMCDRCSLW came in with an amyloid nucleation score of 4.01 ± 0.098.

CMAVWEKIENGVHLLHRSAD registered an amyloid nucleation score of 2.76 ± 0.12.

IGLKKGHYNLILHYYFVWKV: the amyloid nucleation score was found to be 0.505 ± 0.51.

As for KSWQFMSRGVSGWFWRLVPQ, the amyloid nucleation score was determined as 0.743 ± 0.48.

PRCSMRLLGYTPIYDGKS: the amyloid nucleation score was -0.781 ± 1.1.

Substance YVEKVSFTAIEWWRGQLQSV came in with an amyloid nucleation score of 0.565 ± 0.47.

As for LTYRVFIHYRSRQYVFGTVS, the amyloid nucleation score is -0.667 ± 0.62.

For FIVERDTHQGMHFGLMLING, the amyloid nucleation score was 0.286 ± 0.62.

As to GSIQDVIRLAIDVGRAALTE, the amyloid nucleation score came to 0.684 ± 0.55.

As for SMDNYIVNSSTVWPSSFSLK, the amyloid nucleation score amounted to 4.73 ± 0.075.

CICRRVSKTVLSLQANEAPC: the amyloid nucleation score was -0.561 ± 0.41.

For ICVGGNGADCFKMTTGGQLC, the amyloid nucleation score was -0.481 ± 0.5.

In turn, YRTNRKEHSYVLLYARRPSQ showed an amyloid nucleation score of 0.56 ± 0.72.

As to MWSGLIDYMEYLLGWLCT, the amyloid nucleation score is 0.528 ± 1.2.

QIPPRDL displayed an amyloid nucleation score of 0.274 ± 0.51.

In turn, QMYFSFYLLCCLSSEFSI returned an amyloid nucleation score of 3.02 ± 0.11.

As for YKEFVLYILYRLGLMIRKA, the amyloid nucleation score entry is “inactive”.

AIDIYGYLRFPCWLRVLFT: the amyloid nucleation score is -1.06 ± 0.45.

On to ESMWVGLKINAVSNYR, for which the amyloid nucleation score is 0.3 ± 0.55.

Substance AAKRM returned an amyloid nucleation score of 1.11 ± 0.52.

For the substance SRGLFCWWRSTWRGVL, the amyloid nucleation score was -1.28 ± 2.4.

Take LRCLVLYDEVANGRPEDSGG: the amyloid nucleation score is 0.725 ± 1.

Substance FKKSNLPSIVWRCDAWLGSS displayed an amyloid nucleation score of 0.334 ± 0.3.

Substance LADDHE displayed an amyloid nucleation score of 0.229 ± 0.93.

In turn, VRAGH registered an amyloid nucleation score of 0.087 ± 0.27.

VRVWTYLAWVQYLPYQMGLF: the amyloid nucleation score entry was “inactive”.

Substance FNAVATKSVNRGRSLLDVTQ yielded an amyloid nucleation score of 0.62 ± 0.8.

For FTFFRRW, the amyloid nucleation score result is “inactive”.

On to LSGGWEVPQVVAERKARPWI, for which the amyloid nucleation score was -0.037 ± 1.7.

In the case of SYRSVG, the amyloid nucleation score came out at 0.25 ± 0.59.

In turn, RLTFKYIKFAMS came in with an amyloid nucleation score of 0.206 ± 0.36.

On to HYMMADLGFWQYP, for which the amyloid nucleation score came to 0.138 ± 0.94.

For RHSITLFLVTVETVRACVFK, the amyloid nucleation score is -0.714 ± 1.2.

Turning to YVSDFKADTATLSSDLCQLA, the amyloid nucleation score was -0.183 ± 0.73.

DSRNTDFTCYFEIYYCCVNL: the amyloid nucleation score worked out at 8.069 ± 0.063.

Substance VGGNPN returned an amyloid nucleation score of 1.19 ± 0.98.

In turn, NACGQVLCWYL displayed an amyloid nucleation score of 8.816 ± 0.058.

In turn, AFSSVEFRLDVNVFPEWVVL showed an amyloid nucleation score of 3.9 ± 0.12.

In turn, TWNKCKVADSLFMTRIIMVL yielded an amyloid nucleation score of 0.305 ± 0.41.

As for RWDYDWNQVSCNDSRIGKLT, the amyloid nucleation score is 0.565 ± 0.61.

Take YTVTCYCGSDTWSKMLAKVF: the amyloid nucleation score was -1.16 ± 2.4.

On to MWNGMAGMSQAGSCQRCS, for which the amyloid nucleation score was -0.287 ± 0.71.

MWWHVSSMQDRDSGDFNGLL returned an amyloid nucleation score of 0.323 ± 0.22.

INTSR yielded an amyloid nucleation score of 0.038 ± 0.23.

On to DEPAWCSIFAGDIMLKCC, for which the amyloid nucleation score was determined as 3.57 ± 0.077.

With IHDAYVTESGYWVDV, the amyloid nucleation score worked out at 1.29 ± 0.66.

As to SAVQGCNGRCCYFGRGWWSG, the amyloid nucleation score amounted to 3.4 ± 0.083.

Turning to VGGGSRWDIRDNSNQSIIPM, the amyloid nucleation score was -0.338 ± 0.34.

The substance RADPYVYLMEGVCGPRWEPN came in with an amyloid nucleation score of 0.014 ± 0.77.

VLGMPSLRILYITCCSDMVC yielded an amyloid nucleation score of 6.37 ± 0.046.

In turn, YVQLLMVHNAMYRSAGIFSY returned an amyloid nucleation score of 0.572 ± 0.56.

As to QVNLANFGRRKCKRKGR, the amyloid nucleation score came out at 0.185 ± 0.44.

Substance VTARTRSDS returned an amyloid nucleation score of 0.55 ± 0.55.

As to ILLVSNEEISLCYCVYLGWM, the amyloid nucleation score came out at 5.729 ± 0.056.

Regarding LVGGVTNWWCVEVDQKGQNG, the amyloid nucleation score result was “inactive”.

Turning to MPNSPQS, the amyloid nucleation score was -0.404 ± 0.3.

As to FRVFIYPMWRSMWCFGYKEG, the amyloid nucleation score result is “inactive”.

In the case of WSFLDWWIRSRSLITVCVVS, the amyloid nucleation score is -0.348 ± 0.46.

Take SSLSSMLRGSWAGYVLNCL: the amyloid nucleation score result was “inactive”.

For RVKYAGGPIGYLFCLWVLCW, the amyloid nucleation score was -0.895 ± 1.5.

Substance SRKKKIVITEPNHSSRHQSV gave an amyloid nucleation score of 0.003 ± 0.86.

Consider IQSFAMLMQVCLIAHLYRRL, for which the amyloid nucleation score was found to be 0.108 ± 1.

FSSCVNDFLGGRPPSKVLSF registered an amyloid nucleation score of 0.068 ± 0.48.

The substance CGVLKTRIPLCFGVFEWNSL displayed an amyloid nucleation score of 0.475 ± 0.72.

As to CLVELVYFCGLSVGQ, the amyloid nucleation score was -0.17 ± 0.85.

VTIHETCRVWRFVRTDRRWG yielded an amyloid nucleation score of 0.553 ± 0.46.

As to DYLLFSVQGNYESWYNGCKF, the amyloid nucleation score is -2.05 ± 2.4.

Substance TGASLLVAHRTYSEIILRCD showed an amyloid nucleation score of 0.606 ± 0.49.

For IFLVCVSKN, the amyloid nucleation score was 0.601 ± 0.35.

The substance WWVYRARFNCCHLYKVYLHC registered an amyloid nucleation score of 0.221 ± 0.88.

With RVILARHHPDDCMGLR, the amyloid nucleation score was -0.26 ± 0.39.

In turn, LSKYP returned an amyloid nucleation score of 0.383 ± 0.35.

For YRDDYACFLRPYPARCG, the amyloid nucleation score is -0.141 ± 0.92.

The substance SFVCRCFSMCNGEILFLIPY returned an amyloid nucleation score of 0.644 ± 1.

As to DDYTGSEVNIITIV, the amyloid nucleation score is -1.43 ± 0.44.

Take CIVVYLSLY: the amyloid nucleation score was determined as 3.32 ± 0.099.

Take RSPIGGLLWINLRSPACEWG: the amyloid nucleation score entry was “inactive”.

As to LVSWSTVDVSQLTAWKKPAG, the amyloid nucleation score is -0.431 ± 0.36.

As for PVFCPRV, the amyloid nucleation score is -1.55 ± 1.3.

Consider LCYFQGSWYLVRCAIALTYV, for which the amyloid nucleation score is 0.327 ± 0.48.

WMDTLVSIGRGGMLRVSCSG showed an amyloid nucleation score of 0.519 ± 0.49.

For RTEVIKMNLG, the amyloid nucleation score is -0.085 ± 0.42.

In the case of STRICWGTCFDKLDMGGSR, the amyloid nucleation score stood at 1.95 ± 0.34.

With YNCLYDRPFRMMSQCLNIGM, the amyloid nucleation score was -1.59 ± 1.2.

Take WRSSSFSGIWYVSVGYNASL: the amyloid nucleation score is -0.455 ± 0.4.

IMNMIA yielded an amyloid nucleation score of 0.455 ± 0.48.

Regarding YYVDV, the amyloid nucleation score was -0.034 ± 0.88.

Substance GGMLQLSSSDFTRWAQEWSI showed an amyloid nucleation score of 0.355 ± 0.73.

On to VWGQRGSGSNSCLEW, for which the amyloid nucleation score worked out at 0.15 ± 0.68.

In the case of ILVVAVI, the amyloid nucleation score is -0.64 ± 0.39.

VKDASFRFAQQEGMRLRMQS returned an amyloid nucleation score of 0.503 ± 0.38.

Regarding VPRLLYQFLTSHTVVDSPEV, the amyloid nucleation score is -0.069 ± 0.56.

QGSDAYHSMNMQLWVSRTLT registered an amyloid nucleation score of 0.18 ± 0.36.

On to VFGSKFGLKLITDFINILLR, for which the amyloid nucleation score result was “inactive”.

Take LDCHD: the amyloid nucleation score was -0.246 ± 0.44.

In the case of VWMLTMSAFKVYWLNFINYA, the amyloid nucleation score was -0.037 ± 0.22.

Consider CMLVYCEVASVGVSFKLWWR, for which the amyloid nucleation score came to 1.73 ± 0.39.

For the substance VKYLRYFSSLDLLLIVLQAI, the amyloid nucleation score was found to be 0.31 ± 1.2.

As for LYRAAEYSLRILRLKATYPA, the amyloid nucleation score is -0.134 ± 0.89.

With YYPGSGFH, the amyloid nucleation score was -0.531 ± 0.65.

On to GSGNSHLLYRSSNRCLVLYR, for which the amyloid nucleation score was -0.134 ± 0.32.

Regarding VLTCKE, the amyloid nucleation score is -1.55 ± 1.2.

Consider EINCHSSMGFMRWPPRSGNG, for which the amyloid nucleation score was -0.962 ± 1.

As to FSVARFGWFLVSALLQGWDR, the amyloid nucleation score is -0.142 ± 0.55.

Consider VPSLRYYLYGSFFVI, for which the amyloid nucleation score was -2.49 ± 1.7.

YLMLCTEIEPKRAGGGMSER: the amyloid nucleation score entry was “inactive”.

With LFLMKANMELVNLYFRSEVR, the amyloid nucleation score was -0.556 ± 0.52.

Consider NCTRWTLNTDVCSLDRHVPH, for which the amyloid nucleation score is -0.5 ± 2.1.

For VRIRPISPMPDYSPPANWSK, the amyloid nucleation score was 0.041 ± 0.47.

For the substance HTCGIDGLNKRMT, the amyloid nucleation score was -0.791 ± 1.6.

As to WSLQKRG, the amyloid nucleation score entry was “inactive”.

With VPILFRLLVNTSPYNGPLGL, the amyloid nucleation score is -0.042 ± 0.56.

As to PGSCFVMCCDLDKRKGSADE, the amyloid nucleation score was -0.559 ± 0.62.

The substance KRFSSCLRRWAACNGESAAL showed an amyloid nucleation score of 0.412 ± 0.45.

For the substance CGVMDGYLTAK, the amyloid nucleation score is -0.619 ± 0.32.

With EITWCF, the amyloid nucleation score came out at 0.485 ± 0.72.

On to LIEGRGIRGLVCCFSISFA, for which the amyloid nucleation score worked out at 8.375 ± 0.048.

In the case of CRLIVISTTYIIKAQKCLIG, the amyloid nucleation score was -0.512 ± 0.33.

In the case of YSLLVHIFMLLWSYDCLTVT, the amyloid nucleation score was -1.54 ± 2.7.

Regarding INKNCTANEP, the amyloid nucleation score is -0.067 ± 0.23.

In turn, YYIEVLILCWACQNALSRAS displayed an amyloid nucleation score of 0.5 ± 0.9.

These data come from the supplement of paper PMC12042874.
